Numbering of substitutions follows the chain as printed. Names may count otherwise.
B1: V116I: bx9 SEQ ID NO:1 mutant (protein)
chain: MASSRTGAGAGGRVVVFPFPFQGHFNPVMRLARALHARGLAITVFHSGALDPADYPADYRFVPVTVEADPKLLASEDIAAIVTTLNASCDAPFRARLSALLAAEGRDSVRCVFTDISWNAVLTASSDLGVPALGMMTASAASLRDYMAYRTLIDKGYLPVKEERKEDPVPELPPYLVKDLLRVDTSDLEEFAELLARTVTAARRASGLIFNTFPLIETDTLAEIHKALSVPVFAVAPLNKLVPTATASLHGVVQADRGCLQWLDTQQPGSVLYVSFGSMAAMDPHEFVELAWGLADSKRPFVWVVRPNLIRGFESGALPDGVEDEVRGRGIVVAWAPQEEVLAHPAVGGFLTHNGWNSTVEAISEGVPMVCCPRHGDQFGNMRYVCDVWKVGTELVGEQLERGQVKAAIDRLFGTKEGEEIKERMKEFKIAAAKGIGIGVDVDETASPRTDLTDLVDLIKSF
modifications: Zea mays
B2: M135C: bx9 SEQ ID NO:1 mutant (protein)
chain: B1 chain with I116V, M135C
modifications: Zea mays
B3: I153R: bx9 SEQ ID NO:1 mutant (protein)
chain: B1 chain with I116V, I153R
modifications: Zea mays
B4: I153L: bx9 SEQ ID NO:1 mutant (protein)
chain: B1 chain with I116V, I153L
modifications: Zea mays
B5: T198V: bx9 SEQ ID NO:1 mutant (protein)
chain: B1 chain with I116V, T198V
modifications: Zea mays
B6: L194T: bx9 SEQ ID NO:1 mutant (protein)
chain: B1 chain with I116V, L194T
modifications: Zea mays
B7: L194D: bx9 SEQ ID NO:1 mutant (protein)
chain: B1 chain with I116V, L194D
modifications: Zea mays
B8: M135L: bx9 SEQ ID NO:1 mutant (protein)
chain: B1 chain with I116V, M135L
modifications: Zea mays
B9: M135T: bx9 SEQ ID NO:1 mutant (protein)
chain: B1 chain with I116V, M135T
modifications: Zea mays
B10: I153T: bx9 SEQ ID NO:1 mutant (protein)
chain: B1 chain with I116V, I153T
modifications: Zea mays
B11: L194E: bx9 SEQ ID NO:1 mutant (protein)
chain: B1 chain with I116V, L194E
modifications: Zea mays
B12: I153Y: bx9 SEQ ID NO:1 mutant (protein)
chain: B1 chain with I116V, I153Y
modifications: Zea mays
B13: I153C: bx9 SEQ ID NO:1 mutant (protein)
chain: B1 chain with I116V, I153C
modifications: Zea mays
B14: L194A: bx9 SEQ ID NO:1 mutant (protein)
chain: B1 chain with I116V, L194A
modifications: Zea mays
B15: L194G: bx9 SEQ ID NO:1 mutant (protein)
chain: B1 chain with I116V, L194G
modifications: Zea mays
B16: L194C: bx9 SEQ ID NO:1 mutant (protein)
chain: B1 chain with I116V, L194C
modifications: Zea mays
B17: L194Q: bx9 SEQ ID NO:1 mutant (protein)
chain: B1 chain with I116V, L194Q
modifications: Zea mays
B18: I153M: bx9 SEQ ID NO:1 mutant (protein)
chain: B1 chain with I116V, I153M
modifications: Zea mays
B19: L194I: bx9 SEQ ID NO:1 mutant (protein)
chain: B1 chain with I116V, L194I
modifications: Zea mays
B20: L194V: bx9 SEQ ID NO:1 mutant (protein)
chain: B1 chain with I116V, L194V
modifications: Zea mays
B21: L195I: bx9 SEQ ID NO:1 mutant (protein)
chain: B1 chain with I116V, L195I
modifications: Zea mays
B22: I153F: bx9 SEQ ID NO:1 mutant (protein)
chain: B1 chain with I116V, I153F
modifications: Zea mays
B23: I153V: bx9 SEQ ID NO:1 mutant (protein)
chain: B1 chain with I116V, I153V
modifications: Zea mays
B24: V199N: bx9 SEQ ID NO:1 mutant (protein)
chain: B1 chain with I116V, V199N
modifications: Zea mays
B25: I153K: bx9 SEQ ID NO:1 mutant (protein)
chain: B1 chain with I116V, I153K
modifications: Zea mays
B26: I153Q: bx9 SEQ ID NO:1 mutant (protein)
chain: B1 chain with I116V, I153Q
modifications: Zea mays
B27: L194N: bx9 SEQ ID NO:1 mutant (protein)
chain: B1 chain with I116V, L194N
modifications: Zea mays

Assay: UDP luminescence plate assay of E. coli extracts, saturation mutants of SEQ ID NO: 1, herbicide V
Type: biochemical, Zea mays
Conditions: improvement factor relative to w/t bx9 = 1.0, rounded to nearest 0.5; extract activity basis; compound V
Protocol: Competent BL21 (DE3) cells are transformed as in the foregoing examples and, following seed culturing, grown and autoinduced in plates in a 0.5-1 ml volume of autoinduction medium containing 50 ug/ml kanamycin. Plates are incubated at 37° C. and shaken at 900 rpm. Growth is monitored by taking 20 ul aliquots, diluting 10 fold into flat-bottomed 96 well microtiter plates and reading OD600n at t=0, 1, 2, 2½ and 3 hours if necessary. At a (corrected) OD600 nm˜0.2, plates are transferred to 20° C. and shaken overnight at 900 rpm in a Jencons VWR plate incubator. After ˜18-20 h the final OD600 readings are recorded and the plates centrifuged at 4600 rpm (bench top centrifuge) for 10 min at 4° C. The supernatant is discarded and the pellets then washed with 0.25 ml PBS by repeat centrifugation and removal of supernatant before freezing cell pellets at −80° C. To prepare extracts, plates are allowed to thaw for 30 min and then pellets are resuspended in 0.25 ml of a suitable lysis buffer (for example—50 mM Tris HCL buffer at pH 8.0, 5% glycerol containing 50 mM NaCl and lysonase) mixed, incubated at room temperature for a sufficient time for lysis to be near complete and then centrifuged to remove cell debris and 100 ul of supernatant extract removed to a 96 well V-shaped well plate and stored on ice prior to assay.
Optionally plate assays are stopped with brief heating to 95 C before returning to ice and addition of UDP-Glo detection reagent followed by incubation at lab temperature. […] In addition a UDP standard curve is run alongside each set of plate tests.
Making use of the ELISA assay it is then possible to calculate a specific activity (e.g. in Relative Luminescence Units (RLU)/min/ug bx protein) based upon the amount of each mutant bx9 polypeptide expressed in each well. […] The specific activity of the various test mutant extracts on the same plate are then expressed as a fraction of the specific activity of the w/t bx9 and thus the ‘improvement factor’ versus the w/t expressed as a decimal where, for example, ‘0.5’ means half the specific activity of the wild type and 2.0 means twice the specific activity of the wild type. However, as will be readily apparent to the skilled man, particularly in cases where the UDP assay signal was low (with poor signal to noise versus the background) and/or the ELISA measurement of bx protein also low such a method is prone to generate spurious high specific activity numbers and uncertain numbers.

Molecule	Preferred amino acid substitutions and (IF) based on RLU/min/ul	Most Preferred amino acid substitutions and (IF) based on RLU/min/ul
B1	L,I(1.0)	
B2	T,C,L(1.0)	
B3	Q,R,F(1.5)	
B4	T,C,K,V,L,M,Y(1.0);	
B5		V(2.0)
B6	1.5	
B7	1.0	
B8	T,C,L(1.0)	
B9	T,C,L(1.0)	
B10	T,C,K,V,L,M,Y(1.0);	
B11	1.0	
B12	T,C,K,V,L,M,Y(1.0);	
B13	T,C,K,V,L,M,Y(1.0);	
B14		2.5
B15	1.0	
B16		C,N,V(3.0)
B17	1.5	
B18	T,C,K,V,L,M,Y(1.0);	
B19		2.0
B20		C,N,V(3.0)
B21	I(1.0)	
B22	Q,R,F(1.5)	
B23	T,C,K,V,L,M,Y(1.0);	
B24	M,N(1.0)	
B25	T,C,K,V,L,M,Y(1.0);	
B26	Q,R,F(1.5)	
B27		C,N,V(3.0)
